Data: patent US20040204388A1 (UCB, published 2004)

Target: T1, SV2A (rat); native protein of rat brain membranes, solubilized in n-dodecyl-β-D-maltoside; also endogenous in … (rat, UniProt Q02563 1-742)
T1 construct: Native protein from rat tissue or cells, not a recombinant construct; Native glycosylated integral membrane protein; also called soluble SV2A; immunopurified SV2A
Assay: Western blot of fractions immunopurified with anti-SV2A antibodies from solubilized rat brain membranes
Experimental: The rat brain membranes were diluted in a solubilization buffer (Tris-HCl 20 mM pH 7.4, 0.25 M sucrose, protease inhibitors Complete Roche) containing n-dodecyl-β-D-maltoside 15 mM and incubated for two hours at 4° C. Subsequently, the solution was centrifuged at 4° C. for one hour at 100,000 g.

T1 sequence (Q02563 whole entry C340F): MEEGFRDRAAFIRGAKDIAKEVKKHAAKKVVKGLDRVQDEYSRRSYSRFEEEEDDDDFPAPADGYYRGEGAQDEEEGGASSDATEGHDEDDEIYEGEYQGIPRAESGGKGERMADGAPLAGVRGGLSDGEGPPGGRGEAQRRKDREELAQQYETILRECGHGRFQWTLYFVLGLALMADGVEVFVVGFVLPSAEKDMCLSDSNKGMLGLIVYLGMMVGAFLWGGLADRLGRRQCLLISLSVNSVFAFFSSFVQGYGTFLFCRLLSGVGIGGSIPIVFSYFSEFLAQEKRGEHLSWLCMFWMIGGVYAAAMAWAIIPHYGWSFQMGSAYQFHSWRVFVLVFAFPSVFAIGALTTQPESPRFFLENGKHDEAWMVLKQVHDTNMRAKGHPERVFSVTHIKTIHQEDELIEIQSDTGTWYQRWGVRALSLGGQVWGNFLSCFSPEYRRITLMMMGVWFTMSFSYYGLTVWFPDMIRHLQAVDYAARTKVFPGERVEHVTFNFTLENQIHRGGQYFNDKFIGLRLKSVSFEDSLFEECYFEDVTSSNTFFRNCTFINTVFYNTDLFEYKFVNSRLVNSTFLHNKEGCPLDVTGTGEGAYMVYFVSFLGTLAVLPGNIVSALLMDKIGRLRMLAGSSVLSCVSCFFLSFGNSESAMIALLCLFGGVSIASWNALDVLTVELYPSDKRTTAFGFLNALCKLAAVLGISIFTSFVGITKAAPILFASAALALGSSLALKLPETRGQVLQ

B1: SV2B (rat; native isoform in rat brain membranes) (other)
chain: MDDYRYRDNYEGYAPNDGYYRGNEQNPEEDAQSDVTEGHDEEDEIYEGEYQGIPHPDDVKSKQTKMAPSRADGLRGQADLMAERMEDEEQLAHQYETIIDECGHGRFQWTLFFVLVLALMADGVEVFVVSFALPSAEKDMCLSSSKKGMLGLIVYLGMMAGAFILGGLADKLGRKKVLSMSLAINASFASLSSFVQGYGAFLFCRLISGIGIGGSLPIVFAYFSEFLSREKRGEHLSWLGIFWMTGGIYASAMAWSIIPHYGWGFSMGTNYHFHSWRVFVIVCALPATVSMVALKFMPESPRFLLEMGKHDEAWMILKQVHDTNMRAKGTPEKVFTVSHIKTPKQMDEFIEIQSSTGTWYQRWLVRFMTIFKQVWDNALYCVMGPYRMNTLILAVVWFTMALSYYGLTVWFPDMIRYFQDEEYKSKMKVFFGEHVHGATINFTMENQIHQHGKLVNDKFIKMYFKHVLFEDTFFDKCYFEDVTSTDTYFKNCTIESTTFYNTDLYKHKFIDCRFINSTFLEQKEGCHMDFEEDNDFLIYLVSFLGSLSVLPGNIISALLMDRIGRLKMIGGSMLISAVCCFFLFFGNSESAMIGWQCLFCGTSIAAWNALDVITVELYPTNQRATAFGILNGLCKLGAILGNTIFASFVGITKVVPILLAAASLVGGGLVALRLPETREQVLM
notes: Native protein of rat brain; also called isoform SV2B
**Q.** Does B1 bind?
**A.** no binding
